Assay results taken from US20050032692A1 (BOARD OF TRUSTEES OF THE UNIVERSITY OF ILLINOIS, published 2005).

T1: GFP-FoxM1B 1-688 protein (human, UniProt Q08050 1-703)
T1 construct: C-terminal truncation; construction not described; not shown: GFP
T1 sequence: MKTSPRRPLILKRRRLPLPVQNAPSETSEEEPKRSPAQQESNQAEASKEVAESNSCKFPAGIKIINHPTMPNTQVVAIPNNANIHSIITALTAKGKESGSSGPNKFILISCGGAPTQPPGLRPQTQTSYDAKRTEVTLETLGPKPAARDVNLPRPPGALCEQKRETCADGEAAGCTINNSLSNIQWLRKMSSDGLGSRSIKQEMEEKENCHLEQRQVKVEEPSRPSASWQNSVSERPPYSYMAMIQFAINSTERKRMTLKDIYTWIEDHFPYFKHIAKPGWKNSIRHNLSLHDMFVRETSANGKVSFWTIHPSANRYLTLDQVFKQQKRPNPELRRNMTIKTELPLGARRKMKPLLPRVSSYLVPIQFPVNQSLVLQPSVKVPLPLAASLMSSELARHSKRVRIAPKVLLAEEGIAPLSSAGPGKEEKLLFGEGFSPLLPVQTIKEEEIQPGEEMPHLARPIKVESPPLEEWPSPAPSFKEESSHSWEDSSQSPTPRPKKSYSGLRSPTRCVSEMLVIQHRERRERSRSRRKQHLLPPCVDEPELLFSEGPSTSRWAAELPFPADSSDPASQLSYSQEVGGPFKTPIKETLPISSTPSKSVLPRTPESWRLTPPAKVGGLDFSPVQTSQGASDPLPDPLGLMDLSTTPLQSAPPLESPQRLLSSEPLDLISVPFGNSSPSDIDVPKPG

B1: HA-p19^ARF protein, wild type (other, UniProt Q64364 1-169, looked up, not shown: small tags and cut ends)
chain: MGRRFLVTVRIQRAGRPLQERVFLVKFVRSRRPRTASCALAFVNMLLRLERILRRGPHRNPGPGDDDGQRSRSSSSAQLRCRFELRGPHYLLPPGARRSAGRLPGHAGGAARVRGSAGCARCLGSPAARLGPRAGTSRHRAIFAFRWVLFVFRWVVFVYRWERRPDRRA
notes: also called HA tagged p19; WT p19
B2: CMV T7-FoxM1B L641A mutant protein (other, not shown: small tags and cut ends)
chain: MKTSPRRPLILKRRRLPLPVQNAPSETSEEEPKRSPAQQESNQAEASKEVAESNSCKFPAGIKIINHPTMPNTQVVAIPNNANIHSIITALTAKGKESGSSGPNKFILISCGGAPTQPPGLRPQTQTSYDAKRTEVTLETLGPKPAARDVNLPRPPGALCEQKRETCADGEAAGCTINNSLSNIQWLRKMSSDGLGSRSIKQEMEEKENCHLEQRQVKVEEPSRPSASWQNSVSERPPYSYMAMIQFAINSTERKRMTLKDIYTWIEDHFPYFKHIAKPGWKNSIRHNLSLHDMFVRETSANGKVSFWTIHPSANRYLTLDQVFKQQKRPNPELRRNMTIKTELPLGARRKMKPLLPRVSSYLVPIQFPVNQSLVLQPSVKVPLPLAASLMSSELARHSKRVRIAPKVLLAEEGIAPLSSAGPGKEEKLLFGEGFSPLLPVQTIKEEEIQPGEEMPHLARPIKVESPPLEEWPSPAPSFKEESSHSWEDSSQSPTPRPKKSYSGLRSPTRCVSEMLVIQHRERRERSRSRRKQHLLPPCVDEPELLFSEGPSTSRWAAELPFPADSSDPASQLSYSQEVGGPFKTPIKETLPISSTPSKSVLPRTPESWRLTPPAKVGGLDFSPVQTSQGASDPLPDPLGAMDLSTTPLQSAPPLESPQRLLSSEPLDLISVPFGNSSPSDIDVPKPGSPEPQVSGLAANRSLTEGLVLDTMNDSLSKILLDISFPGLDEDPLGPDNINWSQFIPELQ
notes: also called CMV FoxM1B L641A

Assays:
GFP-FoxM1B 1-688 protein = target: T1, GFP-FoxM1B 1-688 protein; test: Co-IP from transfected U2OS extracts
Cdk2 protein = Cdk2 protein (UniProt P24941 1-298); test: Co-IP from transfected U2OS extracts with Cdk2 antibody, Western blot with T7 tag antibody

| Binder | binding result (GFP-FoxM1B 1-688 protein) | binding result (Cdk2 protein) |
| --- | --- | --- |
| B1 | no binding | – |
| B2 | – | no binding |
